In the supplement of paper PMC10567573:

B1: DLC1 (parent)
chain: NDDSADYQHFLQDCVDGLFKEVKE
B2: TRIM29 (parent)
chain: FAEKGELRKSIFSESRKPTVSIME

Variants of: B1
Experiment: protein stability index of a GFP-peptide fusion (GPS, HEK-293T) (PSI 1-6); higher = more stable
Details: c terminus: a fixed tail appended
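Further: lentivirally expressed fusions sorted by FACS into six bins by GFP to DsRed ratio, PSI derived from sequencing read proportions per bin multiplied by bin number.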

Point of comparison: YDDSADYQHFLQDCVDGLFKEVKE [N1Y], protein stability index 2.73. Against it:
- NDDSADYQHFLQDCVDGLFKEVSE [K23S] — higher, 3.09
- NDDSADYQHFLQDCVDGLFKEVFE [K23F] — higher, 2.83
- NDDSADYQHFLQDCVDGLFKEVQE [K23Q] — higher, 2.75
- NDDSADYQHFLQDCVDGLFKEVGE [K23G] — higher, 4.37
- NDDSADYQHFLQDCVDGLFKEVRE [K23R] — lower, 2.57
- NDDSADYQHFLQDCVDGLFKEVNE [K23N] — higher, 3.37
- NDDSADYQHFLQDCVDGLFKEVHE [K23H] — higher, 3.88
- NDDSADYQHFLQDCVDGLFKEVWE [K23W] — lower, 2.66
- MDDSADYQHFLQDCVDGLFKEVKE [N1M] — lower, 1.79
- FDDSADYQHFLQDCVDGLFKEVKE [N1F] — lower, 1.5
- TDDSADYQHFLQDCVDGLFKEVKE [N1T] — lower, 2.6
- WDDSADYQHFLQDCVDGLFKEVKE [N1W] — lower, 1.28
- RDDSADYQHFLQDCVDGLFKEVKE [N1R] — lower, 2.53
- SDDSADYQHFLQDCVDGLFKEVKE [N1S] — lower, 2.6
- EDDSADYQHFLQDCVDGLFKEVKE [N1E] — higher, 3
- QDDSADYQHFLQDCVDGLFKEVKE [N1Q] — lower, 2.69
- CDDSADYQHFLQDCVDGLFKEVKE [N1C] — lower, 2.24
- GDDSADYQHFLQDCVDGLFKEVKE [N1G] — lower, 1.9
- IDDSADYQHFLQDCVDGLFKEVKE [N1I] — lower, 1.59
- NDDLADYQHFLQDCVDGLFKEVKE [S4L] — higher, 2.91
- NDDVADYQHFLQDCVDGLFKEVKE [S4V] — lower, 2.57
- NDDIADYQHFLQDCVDGLFKEVKE [S4I] — lower, 2
- NDDSADYQHKLQDCVDGLFKEVKE [F10K] — higher, 3.6
- NDDSADYQHNLQDCVDGLFKEVKE [F10N] — higher, 4.56
- NDDSADYQHDLQDCVDGLFKEVKE [F10D] — higher, 5.1
- NDDSADYQHQLQDCVDGLFKEVKE [F10Q] — higher, 3.16
- NDDSADYQHELQDCVDGLFKEVKE [F10E] — higher, 3.75
- NDDSADYQHPLQDCVDGLFKEVKE [F10P] — higher, 4.36
- NDDSADYQHLLQDCVDGLFKEVKE [F10L] — lower, 1.62
- NDDSADYQHWLQDCVDGLFKEVKE [F10W] — lower, 1.98
- NDDSADYQHILQDCVDGLFKEVKE [F10I] — lower, 1.78
- NDDSADYQHFLQDCVDQLFKEVKE [G17Q] — lower, 2.44
- NDDSADYQHFLQDCVDVLFKEVKE [G17V] — lower, 2.16
- NDDSADYQHFLQDCVDKLFKEVKE [G17K] — the same, 2.73
- NDDSADYQHFLQDCVDILFKEVKE [G17I] — lower, 2.19
- NDDSADYQHFLQDCVDYLFKEVKE [G17Y] — lower, 2.44
- NDDSADYQHFLQDCVDCLFKEVKE [G17C] — lower, 1.71
- NDDSADYQHFLQDCVDPLFKEVKE [G17P] — higher, 4.92
- NDDSADYQHFLQDCVDRLFKEVKE [G17R] — lower, 2.01
- NDDSADYQHFLQDCVDGLFKEVKK [E24K] — lower, 2.2
- NDDSADYQHFLQDCVDGLFKEVKD [E24D] — lower, 2.33
- NDDSADYQHFLQDCVDGLFKEVKY [E24Y] — lower, 1.66
- NDDSADYQHFLQDCVDGLFKEVKA [E24A] — lower, 2.17
- NDDSADYQHFLQDCVDGLFKEVKT [E24T] — higher, 2.81
- NDDSADYQHFLQDCVDGLFKEVKW [E24W] — lower, 1.67
- NDDSADYQHFLQDCVDGLFKEVKP [E24P] — higher, 4.54
- NDDSADYQHFLQDCVDGLFKEVKN [E24N] — lower, 2.5
- NDDSADYQHFLQDCWDGLFKEVKE [V15W] — higher, 3.8
- NDDSADYQHFLQDCRDGLFKEVKE [V15R] — higher, 4.73
- NDDSADYQHFLQDCPDGLFKEVKE [V15P] — higher, 4.6
- NDDSADYQHFLQDCADGLFKEVKE [V15A] — higher, 4.04
- NDDSADYQHFLQDCSDGLFKEVKE [V15S] — higher, 4.71
- NDDSADYQHFLQDCKDGLFKEVKE [V15K] — higher, 4.71
- NDDSADYQHFLQDCLDGLFKEVKE [V15L] — higher, 3.34
- NDDSHDYQHFLQDCVDGLFKEVKE [A5H] — lower, 2.55
- NDDSTDYQHFLQDCVDGLFKEVKE [A5T] — lower, 2.46
- NDDSDDYQHFLQDCVDGLFKEVKE [A5D] — lower, 2.42
- NDDSNDYQHFLQDCVDGLFKEVKE [A5N] — higher, 2.9
- NDDSLDYQHFLQDCVDGLFKEVKE [A5L] — the same, 2.73
- NDDSYDYQHFLQDCVDGLFKEVKE [A5Y] — lower, 2.17
- NDDSADYQHFLQDCVDGVFKEVKE [L18V] — higher, 4.53
- NDDSADYQHFLQDCVDGAFKEVKE [L18A] — higher, 5.02
- NDDSADYQHFLQDCVDGQFKEVKE [L18Q] — higher, 5.2
- NDDSADYQHFLQDCVDGHFKEVKE [L18H] — higher, 5.37
- NDDSADYQHFLQDCVDGKFKEVKE [L18K] — higher, 5.3
- NCDSADYQHFLQDCVDGLFKEVKE [D2C] — lower, 2.14
- NTDSADYQHFLQDCVDGLFKEVKE [D2T] — lower, 2.65
- NADSADYQHFLQDCVDGLFKEVKE [D2A] — lower, 2.17
- NDDSADYQFFLQDCVDGLFKEVKE [H9F] — lower, 2.32
- NDDSADYQYFLQDCVDGLFKEVKE [H9Y] — lower, 2.24
- NDDSADYQRFLQDCVDGLFKEVKE [H9R] — higher, 2.86
- NDDSADYQWFLQDCVDGLFKEVKE [H9W] — higher, 3.03
- NDDSADYQKFLQDCVDGLFKEVKE [H9K] — lower, 2.63
- NDDSADYQQFLQDCVDGLFKEVKE [H9Q] — lower, 2.23
- NDDSADYQIFLQDCVDGLFKEVKE [H9I] — lower, 2.48
- NDDSADYQTFLQDCVDGLFKEVKE [H9T] — lower, 2.25
- NDDSADYQMFLQDCVDGLFKEVKE [H9M] — higher, 2.74
- NDDSADYQDFLQDCVDGLFKEVKE [H9D] — higher, 2.83
- NDDSADYQPFLQDCVDGLFKEVKE [H9P] — higher, 3.71
- NDDSADYQVFLQDCVDGLFKEVKE [H9V] — lower, 1.92
- NDDSADYQHFLQDCVDGLFKQVKE [E21Q] — higher, 2.74
- NDDSADYQHFLQDCVDGLFKCVKE [E21C] — lower, 2
- NDDSADYQHFLQDCVDGLFKSVKE [E21S] — higher, 3.27
- NDDSADYQHFLQDCVDGLFKMVKE [E21M] — lower, 2.24
- NDDSADYQHFLQDCVDGLFKHVKE [E21H] — lower, 2.42
- NDDSADYQHFLQDCVDGLFKNVKE [E21N] — higher, 3.81
- NDDSADYQHFLQDCVDGLFKPVKE [E21P] — higher, 3.94

Variants of: B2
Experiment: as above
Details: c terminus: a fixed tail appended

Point of comparison: FAEKGELRKSIFSESRKPTVSIMS [E24S], protein stability index 1.65. Against it:
- FAEKGELRKSIFSESRKPTVSIMY [E24Y] — higher, 2.54
- FAEKGELRKSIFSESRKPTVSIMW [E24W] — higher, 2.17
- FAEKGELRKSIFSESRKPTVSIMV [E24V] — higher, 2.33
- FAEKGELRKSIFSESRKPTVSIMT [E24T] — higher, 1.88
- FAEKGELRKSIFSESRKPTVSIMR [E24R] — lower, 1.3
